Measurements reported in publication PMC10582448, “The Histone Chaperones SET/TAF‐1β and NPM1 Exhibit Conserved Functionality in Nucleosome Remodeling and Histone Eviction in a Cytochrome c‐Dependent Manner”.

Assays:
SET/TAF-Ibeta = SET/TAF-Ibeta (Homo sapiens, UniProt Q01105-2 1-277); assay: NMR; 10 mM sodium phosphate pH 7.4; NMR: 10 mM sodium phosphate pH 7.4, 1 mM ascorbate, 1 mM TCEP, 5% D2O, 25 C; optical tweezers: 25 mM HEPES, 50 mM KCl, 0.1 mM EDTA, pH 7.5; conditions: protein: recombinant; tags: N-terminal 6xHis; chain copies: 2; blunt
histone H3 = histone H3 (Xenopus laevis, UniProt P84233 1-136); assay: NMR; H3 competes with Cc for dsDNA; NMR: 10 mM sodium phosphate pH 7.4, 1 mM ascorbate, 1 mM TCEP, 5% D2O, 25 C; optical tweezers: 25 mM HEPES, 50 mM KCl, 0.1 mM EDTA, pH 7.5; conditions: protein: recombinant; blunt
cytochrome c = cytochrome c (Homo sapiens, UniProt P99999 2-105); assay: NMR; reduced Cc 13 uM, dsDNA 26 uM; Met80 signal decreased on dsDNA addition; NMR: 10 mM sodium phosphate pH 7.4, 1 mM ascorbate, 1 mM TCEP, 5% D2O, 25 C; optical tweezers: 25 mM HEPES, 50 mM KCl, 0.1 mM EDTA, pH 7.5; conditions: protein: recombinant; blunt
Sequence of cytochrome c (P99999 2-105): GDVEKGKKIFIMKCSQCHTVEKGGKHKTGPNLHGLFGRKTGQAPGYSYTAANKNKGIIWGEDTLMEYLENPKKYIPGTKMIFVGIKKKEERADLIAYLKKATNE

Sequence of SET/TAF-Ibeta (Q01105 other isoform, or with tags, fused parts or gaps): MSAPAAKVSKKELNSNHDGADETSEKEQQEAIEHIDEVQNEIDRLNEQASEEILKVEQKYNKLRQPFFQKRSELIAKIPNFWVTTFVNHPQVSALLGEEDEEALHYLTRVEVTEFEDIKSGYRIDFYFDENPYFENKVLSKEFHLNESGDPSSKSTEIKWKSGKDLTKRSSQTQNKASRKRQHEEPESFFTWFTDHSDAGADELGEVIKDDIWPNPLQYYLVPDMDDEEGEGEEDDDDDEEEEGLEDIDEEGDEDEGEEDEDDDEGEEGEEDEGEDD

B1: 10-mer dsDNA (dsDNA)
DNA 1: TAGCGTAACG
DNA 2: CGTTACGCTA
B1: no binding (SET/TAF-Ibeta); binds (histone H3); binds (cytochrome c).
